Results from patent publication US20240238439A1 (HUMMINGBIRD BIOSCIENCE PTE, published 2024).
Values belong to the binder of their own block, whether it stands above or below them.

What was measured:
Experiment in all cases: SPR (Biacore T200), His-captured receptor on CM5 chip, ADC as analyte
[1] = target: T1, His-tagged recombinant human FcγRIA (human, UniProt P12314 16-288, limits assumed)
T1 construct: Captured on a CM5 chip by the Biacore HIS capture kit; also called human FCγRIA (CD64); not shown: His tag
Description: (§1) ADCs described in Example 2 were analysed for their ability to bind to human Fcγ receptors by surface plasmon resonance using Biacore.
(§2) Briefly, a Biacore HIS capture kit (Cytivia, Cat. #28995056) was employed to immobilize His-tagged recombinant human Fcγ receptor ligand (FcγRIA, FcγRIIA or FcγRIIIA) onto the surface of a CM5 sensor chip. […] Data capture and analysis were preformed using Biacore T200 according to manufacturer's recommendations for analyzing high-affinity antigen-antibody kinetics. Responses from all steps were reference cell-subtracted, and zero concentration-corrected to normalize for systematic disturbances. The resulting association and dissociation curves were fitted with 1:1 global fitting to obtain values for association rate (ka), dissociation rate (kd), and the equilibrium dissociation constant (KD).

[2] = target: T2, His-tagged recombinant human FcγRIIA (human, UniProt P12318 34-217, limits assumed)
T2 construct: Captured on a CM5 chip by the Biacore HIS capture kit; also called human FCγRIIA (CD32a); not shown: His tag
T2 sequence (looked up): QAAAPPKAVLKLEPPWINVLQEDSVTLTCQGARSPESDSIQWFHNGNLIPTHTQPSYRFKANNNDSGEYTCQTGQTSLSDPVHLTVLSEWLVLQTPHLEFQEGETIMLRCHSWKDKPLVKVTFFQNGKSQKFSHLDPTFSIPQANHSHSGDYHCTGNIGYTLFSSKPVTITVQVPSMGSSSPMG
Description: as §1, §2

[3] = target: T3, His-tagged recombinant human FcγRIIIA (human, UniProt P08637 17-208)
T3 construct: Captured on a CM5 chip by the Biacore HIS capture kit; also called human FCγRIIIA (CD16a); not shown: His tag
Description: as §1, §2

T1 sequence (P12314 16-288 limits assumed): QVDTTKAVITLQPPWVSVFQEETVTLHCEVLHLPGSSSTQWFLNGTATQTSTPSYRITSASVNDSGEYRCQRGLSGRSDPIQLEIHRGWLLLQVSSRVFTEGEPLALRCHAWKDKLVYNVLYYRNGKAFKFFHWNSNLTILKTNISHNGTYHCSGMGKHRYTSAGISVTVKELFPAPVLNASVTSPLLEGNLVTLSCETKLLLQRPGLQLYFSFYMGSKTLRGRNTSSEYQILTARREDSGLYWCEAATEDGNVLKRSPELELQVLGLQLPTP
T3 sequence (P08637 17-208 limits assumed): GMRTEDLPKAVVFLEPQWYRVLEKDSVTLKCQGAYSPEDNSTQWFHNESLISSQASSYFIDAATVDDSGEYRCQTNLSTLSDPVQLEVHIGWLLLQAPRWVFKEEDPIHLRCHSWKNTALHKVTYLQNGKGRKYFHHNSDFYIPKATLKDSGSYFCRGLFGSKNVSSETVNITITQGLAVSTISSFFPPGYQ

binding result [1]: no binding
binding result [2]: no binding
binding result [3]: no binding
B1: 501c.S8D4 (antibody, human IgG1, kappa, L234A L235A)
heavy: not shown
light: DIQMTQSPSSVSASVGDRVTITCKASQIVGSNVAWYQQKPGKAPEPLIYSASYLYSGVPSRFSGSGSGTDFTLTISSLQPEDFATYYCQQYSSHPLTFGQGTKLEIKRTVAAPSVFIFPPSDEQLKSGTASVVCLLNNFYPREAKVQWKVDNALQSGNSQESVTEQDSKDSTYSLSSTLTLSKADYEKHKVYACEVTHQGLSSPVTKSFNRGEC
modifications: SYNtecan E (HydraSpace-PEG2-HydraSpace-Val-Ala-PABC linker, exatecan payload) conjugated at the 6-azido-GalNAc residue of the N-glycan of N297 (EU numbering); drug-to-antibody ratio 4

binding result [1]: no binding
binding result [2]: no binding
binding result [3]: no binding
B2: 501b.S8D4 (antibody, human IgG1, kappa, L234A L235A)
heavy: QVQLQESGPGLVKPSQTLSLTCTVSGYSITSGYSWHWIRQHPGKGLEWIGSIRYSGGTDYNPSLKSLVTISADTSKNQFSLKLSSVTAADTAVYYCARMTTAPWYPFDYWGQGTTVTVSSASTKGPSVFPLAPSSKSTSGGTAALGCLVKDYFPEPVTVSWNSGALTSGVHTFPAVLQSSGLYSLSSVVTVPSSSLGTQTYICNVNHKPSNTKVDKKVEPKSCDKTHTCPPCPAPEAAGGPSVFLFPPKPKDTLYITREPEVTCVVVDVSHEDPEVKFNWYVDGVEVHNAKTKPREEQYNSTYRVVSVLTVLHQDWLNGKEYKCKVSNKALPAPIEKTISKAKGQPREPQVYTLPPSRDELTKNQVSLTCLVKGFYPSDIAVEWESNGQPENNYKTTPPVLDSDGSFFLYSKLTVDKSRWQQGNVFSCSVMHEALHNHYTQKSLSLSPGK
light: B1 light
modifications: SYNtecan E (HydraSpace-PEG2-HydraSpace-Val-Ala-PABC linker, exatecan payload) conjugated at the 6-azido-GalNAc residue of the N-glycan of N297 (EU numbering); drug-to-antibody ratio 4
